Measured values taken from the Immune Epitope Database (IEDB).

Legend:
HLA-B*58:01 [1] = assay: IEDB peptide-MHC binding, purified MHC/competitive/radioactivity; filed as Kd, often an IC50 or EC50 that approximates it; ≥ and ≤ were set here for values at or beyond the usual limits of such assays
HLA-B*57:01 [2] = assay: as above
HLA-B*45:06 = assay: IEDB peptide-MHC binding, purified MHC/competitive/fluorescence; filed as Kd, often an IC50 or EC50 that approximates it; ≥ and ≤ were set here for values at or beyond the usual limits of such assays; details: source organism: Orthohantavirus puumalaense
HLA-B*15:42 = assay: as above; details: source organism: Orthohantavirus puumalaense
HLA-B*83:01 = assay: as above; details: source organism: Orthohantavirus puumalaense
HLA-B*18:01 = assay: IEDB peptide-MHC binding, purified MHC/direct/fluorescence; filed as Kd, often an IC50 or EC50 that approximates it; ≥ and ≤ were set here for values at or beyond the usual limits of such assays
HLA-B*40:01 = assay: as above
HLA-A*11:01 [3] = assay: IEDB peptide-MHC binding, purified MHC/competitive/radioactivity; filed as Kd, often an IC50 or EC50 that approximates it; ≥ and ≤ were set here for values at or beyond the usual limits of such assays; details: source organism: Dengue virus 3 Martinique/1243/1999
HLA-B*07:02 = assay: IEDB peptide-MHC binding, purified MHC/direct/fluorescence; filed as Kd, often an IC50 or EC50 that approximates it; ≥ and ≤ were set here for values at or beyond the usual limits of such assays
HLA-B*51:01 [4] = assay: as above; details: source organism: Orthohantavirus hantanense
HLA-B*15:17 = assay: IEDB peptide-MHC binding, purified MHC/competitive/fluorescence; filed as Kd, often an IC50 or EC50 that approximates it; ≥ and ≤ were set here for values at or beyond the usual limits of such assays; details: source organism: Orthohantavirus andesense
HLA-A*26:01 = assay: as above; details: source organism: Orthohantavirus andesense
HLA-B*27:03 = assay: as above; details: source organism: Orthohantavirus andesense
HLA-B*51:01 [5] = assay: as above; details: source organism: Orthohantavirus andesense
HLA-B*27:05 = assay: IEDB peptide-MHC binding, purified MHC/direct/fluorescence; filed as Kd, often an IC50 or EC50 that approximates it; ≥ and ≤ were set here for values at or beyond the usual limits of such assays; details: source organism: Orthohantavirus andesense
HLA-B*39:01 = assay: as above; details: source organism: Orthohantavirus andesense
HLA-B*15:01 = assay: as above; details: source organism: Orthohantavirus andesense
HLA-B*58:01 [6] = assay: as above; details: source organism: Orthohantavirus andesense
HLA-A*31:01 = assay: as above; details: source organism: Orthohantavirus andesense
HLA-A*02:12 = assay: as above; details: source organism: Orthohantavirus andesense
HLA-A*69:01 = assay: as above; details: source organism: Orthohantavirus andesense
HLA-A*02:01 = assay: as above; details: source organism: Orthohantavirus andesense
HLA-A*11:01 [7] = assay: as above; details: source organism: Orthohantavirus andesense
HLA-B*44:02 = assay: as above; details: source organism: Orthohantavirus andesense
HLA-A*03:01 = assay: as above; details: source organism: Orthohantavirus andesense
HLA-A*01:01 = assay: as above; details: source organism: Orthohantavirus andesense
HLA-A*29:02 = assay: as above; details: source organism: Orthohantavirus andesense
HLA-B*57:01 [8] = assay: as above; details: source organism: Orthohantavirus andesense
HLA-B*46:01 = assay: as above; details: source organism: Orthohantavirus andesense
HLA-A*68:02 = assay: as above; details: source organism: Orthohantavirus andesense
HLA-B*48:01 = assay: as above; details: source organism: Orthohantavirus andesense
[9] = source organism: Dengue virus 2 Jamaica/1409/1983
[10] = source organism: Dengue virus 3 Martinique/1243/1999
[11] = source organism: Orthohantavirus andesense

Measured: Kd

AASIILEFFL
2.27 µM: HLA-B*57:01 [2]; [9]
0.366 µM: HLA-B*58:01 [1]; [9]

AELGAFFSI
≤ 0.001 µM: HLA-B*40:01; source organism: Amur virus
≥ 5 µM: HLA-B*45:06 | HLA-B*15:42 | HLA-B*83:01
0.0408 µM: HLA-B*18:01; source organism: Amur virus

ASSMINGVVK
1.3 µM: HLA-B*58:01 [1]; [10]
15.7 µM: HLA-B*57:01 [2]; [10]
0.0392 µM: HLA-A*11:01 [3]

AVRTDGSNI
≥ 20 µM: HLA-B*51:01 [4]
0.261 µM: HLA-B*07:02; source organism: Orthohantavirus hantanense

AYDHGNVIL
≥ 20 µM: HLA-B*15:17 | HLA-A*26:01 | HLA-B*27:03 | HLA-B*51:01 [5] | HLA-B*27:05 | HLA-B*18:01; [11] | HLA-B*07:02; [11] | HLA-B*15:01 | HLA-B*58:01 [6] | HLA-A*31:01 | HLA-A*02:12 | HLA-A*69:01 | HLA-A*02:01 | HLA-A*11:01 [7] | HLA-B*44:02 | HLA-A*03:01 | HLA-A*01:01 | HLA-A*29:02 | HLA-B*57:01 [8] | HLA-B*46:01 | HLA-A*68:02 | HLA-B*48:01 | HLA-B*40:01; [11]
0.0657 µM: HLA-B*39:01
